# Read-outs that look alike come from different tables or passages of the source.
# Target: HIV-1 gp120 protein from the BaL.01 strain (HIV-1)
# Assay: BLI
Binder,Kd [nM],Kd (biotin (EZ-Link NHS-LC-Biotin) in the competition ELISA only | biotin (EZ-Link NHS-LC-Biotin) in the competition ELISA only) [nM]
VRC01 (protein) chain 1: QVQLVQSGGQMKKPGESMRISCRASGYEFIDCTLNWIRLAPGKRPEWMGWLKPRGGAVNYARPLQGRVTMTRDVYSDTAFLELRSLTVDDTAVYFCTRGKNCDYNWDFEHWGRGTPVIVSS chain 2: EIVLTQSPGTLSLSPGETAIISCRTSQYGSLAWYQQRPGQAPRLVIYSGSTRAAGIPDRFSGSRWGPDYNLTISNLESGDFGVYYCQQYEFFGQGTKVQVD,25.1,–
FD22 (protein) chain 1: QVQLSQSGGGAVQPGKSLTLSCRAYGFHLFSYVVVWVRQTPQNGLEWVAGAASGGWPQEFMNSVRGRFSISRDDYTVSLQMNALRVDDSGLYFCAQERGLHRLDGAVKFGRWFRAWGQGSQVVVTS chain 2: QSALTQPASVSGSPGQSITLSCTGADNSVSWYQVVPGRAPKLLIFEVNVRPSEVSDRFSGSKSGDTASLTISRLQIEDESDYYCVTRRGDVTYLFGSGTRVSVL,–,8.88

# — PMC12149299
